The values that follow come from a protein production outcome set (Wang et al. 2014).

The nature of this data set: label from the status in PepcDB records.
Turning to “MAASSSARVAAATAPTASPTSAAPAAPHDGEDNVAADAPYRVLIVEDDRSQALFAQSVLHGAGMHAQVEMTAASVPQAIQDYHPDLILMDLHMPELDGIRLTTLIRQQPGQQLLPIVFLTGDPDPERQFEVLDSGADDFLTKPIRPRHLIAAVSNRIRRARQQALQQAGEQVSVRSNPETGLPTRGHVMDLLADALERKQSGGLFFIEIASALGLRERYGYAAYERLMTQAGHRLASAAQPYPLARLNDNSFLLLAVDMPEASLEQQALEIRQRLSANAFPVREEESVHVRCAIGVAPLGLGFDDTGSALEAVERTALQARLRSDGVQTYLAPSQAEQQEQLRLVEGQLELAYQPIVAVAGGDTAQYQVLLRLRQADGTLLSAGQVIPAAEAAGRIADLDQQVMDHALGLLHLYQHASPPLRLFVSQSPRTLARDAFADWLLKALVERGVAGQSLIVDLRLDDALIHAVTVQQFCAKLMPAGVQFCLSQFEPGDEANALLAQLPLSFVRMANRFADAHGNAAVRDELRGVIDIAHQRGLLIIGQRIEDPQAAAAMWMSGVDFIQGNLVQTVGKELDFDFTSAVL”, the protein production entry is “failed”.

Take “MTRLRGTLSVCIDAFPAWTRPLALAFVVYALSFGMRMLEYPAWQNPEYMLDGEYLLATHDAYHWIAGAEGFEFGAGHPMSELVRLAAAFTGTTPAAVGFWLPPVMASLVAVGVFGWAAALGGVEAGVCAGVLASLAPGFLARTLLGYCDTDLVTLLFPLLMGLGPAFWMARFMFTPLQVARRLLARRTGTSDVVPDAVAVMMTSRGEADDDWHGGALSPRWLALLAGSGLVGSWGAEWHSLFPYLIRYDVVLLFGCICVFGRPGMRRALLVGGLAYALPMLVGAWGLLFALALGWGLHRADARFMAFVRGRALPVAGWCAVAVLLFDPDVFRMFLNSIAGYVKRSGDPSPGAGGDDPLVYPSVAQSIIEVQDLSLSEVLSYFHPWLWVALAGLGGFVPLLLARPAAFFLLPLGVLSFLSVKLGGRMVMFGAPVLALGFALPMVWGVQRVLRHDLRTGWVRLALSAVLLVIVATPFVDLLPAMTQGPIINKRHAEALRHIRTATPEDSMVWIWWDWGYSAHHFAHRRTIADGASHGGPSLYVPAAVFSTANPRFAWQLIRYTAERGGIPGSVFEGMGGAQAQELVHRLGIEKMTFADAPRQYLVVSYDMLRLGFWITNFGTWDFLSREGKGYAISSIPQQLSYSLDTGEVQVQGNTTGVLASTIDVFDEGQLERRDYIVRQGGSGNAIADYAARQRNIESRRNIHFLFNKVTGEKLVLDDRLYNTVMVQLLLCSPDDTRFAPYFKLIYDNVYARVYEVR”: the protein production result was “failed”.

For the sequence “MQIVQIARPGSMKGWIRKAVARYAHATGRGGKFYRRFCNPSGLEWGAYLARWGNFHSVGSNFYVNTGCKFLDPSLVRIGNSVGLSDCTLIGHDGVVLLIEHRFGKHLDSVGFIDIKDNCFIGHGAIVMPRVTIGPESIVAAGAVVTKDVPPGTVYGGNPAEFICTTEQLIKRVEARCEAYPWIDLVKQRNGAYDPEVEPLLMAQRRQYFFGDSLEHHHHHH”, the protein production result was “failed”.

On to “MAILHSVSYGTSDNTLVFIGSLGSTTDMWLPQLDALHKDFRVIAVDHRGHGLSELIEGTPTVADLAQDVLDTLDDLGVGNFGVIGLSLGGAVAQYLAATSDRVTKAAFMCTAAKFGEPQGWLDRAAACRENGTGSLSEAVIQRWFSPTWLENNPASREHFEAMVAGTPSEGYALCCEALATWDFTDRLGEITVPVLTIAGADDPSTPPATVQIIADGVGGESRAEVLSPAAHVPTVERPNEVNELLAQHFA”, for which the protein production entry is “failed”.

For the sequence “MSTDFAAARLNMVESQIRTADVTDLPLQDALRVVARESVVPASKAYLAYADADIEYAPGRWLLRPREVGKLLQALKPREGETVLAIAAPYAAAVLEKMGLSVTRHDGEDLKTVPAGAYDVIVCEGAVAVAPKSWQDALAHGGRLGVVERTGPVGRAAIYLRAEDGVGRRAAFDASPPLLAGFEAETGFSF”, the protein production result is “failed”.

In the case of “MFLVTGATGDIGRRVIRLLREHNHSVRGFARLTSRYGELEHRGANIFIGDLRREQDIEKACQGVQYIISAHGSDNDALTLDYRANIALIDQAKANGVQHFVFISVLGAERGYEDAPVFKAKRAVENYLAASGLNYTILRPAGLASNLLPLAERFRETGLYLLIGDPKNRTSIVSTDDLARIVVDSVTVPEARNQIFSVGGPEILLREDIPQIFSHIFKKEPIVVNSPLLVIDGLRGVLGLINPEAQQALGTFRTLLSNEFFCRKDEIAKLEQTFNFPLETLESFLRRYLAVLEHHHHHH”, the protein production entry is given as “failed”.

For “MPSLSVRGSLLLVCALAVTGCASLQSQDQINYAHCRMVGQASKAEKFDVVLQEADLCLEKNQLSQPMQSLVYWLKSDAYASFKRYPEAIAAKEKSIELGPKPDARAVLDLSRLYREAGNPQKALELVQSNLDNNLGEAGKGSGFNMPTYYHLGQTLYDLGRYREAAEAYSTGLLKQPDYAWAFYHRGLAYDKLGQTDDARADFAQFAKLVNQKYVEPQHQAKLAEYKIKLP”, the protein production result is “failed”.

On to “QDISQRKKEQEALAESESRFQELADLLPQPVFELDMKGNIIYTNSLGFQAFGYTKDDLEKGVSSLALFVPEDRETVLQNIENRLKNIPFENHEYTALRKDGTTFPILIYTARINRGGVPVGIRGIVLDITDRKQAEENLVQLNQNLELRVEERTRELEVTHQQMILQEKLASIGQLAAGIAHELNNPINFVRINFATLQEDVSDLHTLLKEYRLVTEKLEDR”, for which the protein production result is “failed”.

“MEGIQHPIPRTVEEVFSDFRGRRAGLIKALSTDVQKFYHQCDPEKENLCLYGLPNETWEVNLPVEEVPPELPEPALGINFARDGMQEKDWISLVAVHSDSWLISVAFYFGARFGFGKNERKRLFQMINDLPTIFEVVTGNAKQSKDQSANHNSSRSKSSGGKPRHSESHTKASKMSPPPRKEDESGDEDEDDEQGAVCGACGDNYGGDEFWICCDACEKWFHGKCVKITPAKAEHIKHYKCPSCTTSKKMKA”: the protein production entry was “failed”.

For “MPQDPRHPEHQYLDLVKHILENGARRMDRTGTGTLSVFGATMRFSLEDNTFPLLTTRRVFYRGVVEELLFFLRGETDSKVLEKKGVRIWEKNGAKQFLQSVGIDREEGDLGPIYGFQWRHFGARYETSASSYEGKGVDQIASAIAAIRANPASRRIVVSAWNPTDLGSMALPPCHVLFQFNVTDGKLSCAMYQRSGDMGLGVPFNIASYSLLTILVAHLTGLQPGEFVHFLGDAHVYLDHVDSLRQQIQRPPRAFPKLFVSPKGPRTEPEHFQYEDFELVGYDPHPAIKMNMSA”, the protein production result is recorded as “not failed”.

Turning to “MFSNVNKTTSAEAGKSAFWAMSIFLLLLSIMLLVLGLYYQIVLHHTPAPLLLGIAAGFGLGTPLEIWNFSDPDTLMRVMAFQDRFLIVCFGFSIGLGAILLYLFAAIPGVSPHYGIKDFFVFGVVVGGLLFGVGVGLAGYFPGTIWIALGQGRRDAIYAVFGGLLGALTWSLIFGAARGFFWNTFNYGPITWYSIFGIKSHLEIFGTSLIFGAILLGMFLFLPRYPKQPVKESCGFHLAGKNNKVLTFDDMIDDENKKYPDQNQYLIRLTNESSIRNARSIIVLGIAFTVIAVAVILLRQIFGESTTYSWIGAQLFYAVNPQYAASNPYWNLFGGMHIVNGKPIDLPFSEIGWEPFSDLGTFLGGLISSIFISKRFMKFKKRVPLVWEHRFGPSDKKRFVGSFFGAFLVLFGARMANGCASGHVLSGNIQMAISSFVFLMAVLIGSWLTLYFVMGLKLNSRGYRN”, the protein production entry is “failed”.

In the case of “QDSDSTAAVAVLKRAVELDAESRYQQALVCYQEGIDMLLQVLKGTKESSKRCVLRTKISGYMDRAENIKKYLDQEKEDGK”, the protein production entry is listed as “not failed”.

Regarding “MSHWLILPILLPLFAGSLLLLPLAERWQRGLSLLAALALIPLSLLLIRTAASGDLSVYALGNWAAPFGIVLMLDRLAALMLLATAVLGSAALIYALRGEDRLGKHFHALFQFQLLGINGAFLTGDLFNLFVFFEILLIASYALLLHGGGAERVRSGLHYVILNLVGSAFFLIAVGTLYGLTGTLNMADMAQKIAMADAERAPLLAAAGLLLLVVFALKAALLPLYFWLPRAYATASAPVAALFAIMTKVGIYSILRVYTLVFGDAAGELANLAQAWLWPLALATLGLGAIGALAARTLQGLLAYLVVVSAGTLLAGVALGSERALAASLYYLLHSTWIAGGLFLLADLVARQRGDKAGDLVQGPALQNPRLLGGAFFIGAIAVAGLPPLSGFFGKVMLLQSVAPGSQALALWSVVLGSGLVALVALSRAGSTLFWRTGHTVLGSAELDHGRLFACILLLSAGPLLVFAAKPLLAYVQATAAQLHDLDLYRQIITRGGAA”, the protein production result was “failed”.
